Results: publication doi:10.1101/2020.11.02.20223404

Target: angiotensin-converting enzyme 2 (ACE2) (human) (UniProt Q9BYF1)
Test: other fluorescence titration

Chain of UniProt Q9BYF1 (Q9BYF1 18-805): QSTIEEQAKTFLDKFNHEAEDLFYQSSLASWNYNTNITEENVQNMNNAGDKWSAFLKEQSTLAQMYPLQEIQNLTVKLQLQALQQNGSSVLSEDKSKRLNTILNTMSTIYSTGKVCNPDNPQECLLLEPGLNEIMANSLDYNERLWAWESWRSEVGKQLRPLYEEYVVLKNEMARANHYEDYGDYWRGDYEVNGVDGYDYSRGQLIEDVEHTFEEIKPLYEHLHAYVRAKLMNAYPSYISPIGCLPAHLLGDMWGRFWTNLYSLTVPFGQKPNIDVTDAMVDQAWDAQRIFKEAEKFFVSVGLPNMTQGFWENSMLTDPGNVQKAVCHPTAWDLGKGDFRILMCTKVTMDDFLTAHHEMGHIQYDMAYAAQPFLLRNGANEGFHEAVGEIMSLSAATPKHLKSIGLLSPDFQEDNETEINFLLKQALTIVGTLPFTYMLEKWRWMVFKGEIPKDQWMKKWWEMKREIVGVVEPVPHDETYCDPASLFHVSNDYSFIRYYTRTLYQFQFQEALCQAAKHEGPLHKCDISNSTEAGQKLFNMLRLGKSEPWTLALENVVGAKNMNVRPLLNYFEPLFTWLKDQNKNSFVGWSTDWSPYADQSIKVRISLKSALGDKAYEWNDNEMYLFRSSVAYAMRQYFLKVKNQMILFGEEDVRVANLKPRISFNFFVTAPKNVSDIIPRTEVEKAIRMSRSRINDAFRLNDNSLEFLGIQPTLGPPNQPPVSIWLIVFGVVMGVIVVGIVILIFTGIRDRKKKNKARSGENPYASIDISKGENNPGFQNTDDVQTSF

## SARS-CoV-1 spike receptor-binding domain (S RBD) (domain or fragment)
  ΔF/F0 of the 1130 nm SWCNT emission peak after 90 min, 10 mg/L: 88.4%
